Laboratory results published in patent US12371675B2, “Process and microorganism for synthesis of adipic acid from carboxylic acids” (THE GOVERNING COUNCIL OF THE UNIVERSITY OF TORONTO, priority 2015, dated 2025).

B1: EREDCA: 2-enoate reductase (ERED) from Clostridium acetobutylicum DSM 1731 (protein)
chain: MNKYKKLFEPIKIGKCEIKNRFALAPMGPLGLADSEGGFNQRGIDYYTERAKGGTGLIITGVTFVDNEVEEHGMPNCPCPTHNPVQFVRTGREMTERIHAYNSKVFLQMSGGFGRVTIPTNLGEFPPVAPSPIQHRWLDKTCRELTVDEIKSIVKKFGEGAFNAKRAGFDGVQIHAVHEGYLIDQFAISLFNHRTDEYGGSLENRLRFAREIVEEIKNRCGEDFPVTLRYSPKSFIKDLRDGALPGEEFVEKGRDLDEGVEAAKLLVSYGYDALDTDVGSYDSWWWSHPPMYQEKGLYRKYAKLMKDTVDVPVICAGRMDDPDMALEAVENGTCDVISLGRPLLADPDYVNKLRSNKCKSIRPCISCQEGCMGRVQHYSMLNCAVNPQACKERANSLTPIIKSKKVLIVGGGVAGCEAARVLALRGHEPVLYEKSNRLGGNLIPGGAPSFKEDDIALADWYTNTLKELNVEVNLNSEVTKEQILNSKFDTVIVATGSTPKVFPLGDDEKVFTAAEVLLGQKDPGETTVVVGGGLVGCELALDLAKKGKKVTIVEALNKILALNGPLCSANSEMLQKLIPFNGIDVKANSKVKGYKNGLLKMETENGIEELPCDSVILSVGYKEENSLYKELEFEIPEIYLLGDARKVSNIMYGIWDAFEVANHI
B2: EREDBC: 2-enoate reductase (ERED) from Bacillus coagulans 36D1 (protein)
chain: MKYKKLFETVKIRNVELKNRYAMAPMGPLGLADAEGGFNQRGIEYYTARARGGTALIITGVTFVDNEVEEHGMPNVPCPTHNPVHFVRTSKEMTERIHAYDSKIFLQMSAGFGRVTIPTNLGEYPPVAPSPIPHRWLDKTCRELTVEEIHSIVRKFGDGAFNAKRAGFDGVQIHAVHEGYLLDQFAIAFFNKRTDAYGGPLENRLRFAREIVEEIKQRCGEDFPVTLRFSPKSFIKDWREGALPGEEFEEKGRDLDEGIEAAKLLVSYGYDALDVDVGSYDSWWWSHPPMYQKKGLYIPYARLVKEAVDVPVLCAGRMDNPDLALAALEDGACDIISLGRPLLADPDYVNKLRIGQVADIRPCLSCHEGCMGRIQEYSSLGCAVNPAACREKEAALTPALKKKRVLIAGGGVAGCEAARVLALRGHEPVIFEKSNRLGGNLIPGGAPDFKEDDLALVAWYEHTLERLGVEIHLNTALTKEEILAANVDAVLIATGSNPKILPLDGKNKVFTAEDVLLDKVDAGQHVVIVGGGLVGCELALNLAEKGKDVSLVEMQDKLLAVNGPLCHANSDMLERLVPFKGVQVYTSSKIVDTTEKTAVVDVDGELREIEADSIVLAVGYSAEKSLYEDLKFEVADLHVVGDARKVANIMYAIWDAYEVAANL

Experiments:
[1] = In vitro reductase activity of purified EREDs, NADH oxidation at 340 nm; assay type: biochemical; conditions: for activity against 2-hexenedioic acid: purified enzyme, anaerobic, NADH, aqueous buffer
Experimental: (§1) The C═C reducing activity of EREDs was examined. Enzyme activity of purified EREDs was measured spectrophotometrically in 96-well plates by following incubation for 3-5 min at 30° C. in the anaerobic chamber as described in M. Buhler, H. Simon, Hoppe-Seyler's Zeitschrift fur Physiologische Chemie 1982, 363, 609-625. Buffers and reagents were degassed and sparged with Ar. Reaction mixture contained potassium phosphate (100 mM and pH 7.0), NADH (0.5 mM), indicated substrates, and proteins (0.1-50 μg) in a final volume of 200 μL. Enzyme reactions were monitored by following the decrease in absorbance at 340 nm (ε340 nm=6,220/M·cm) due to oxidation of NADH to NAD+.
(§2) For in vitro biochemical characterization, enzyme activities of purified EREDs were measured with 2-hexenedioic acid, cis-cis-muconic acid, trans-trans muconic acid, trans-cinnamic acid, trans-2-methyl-2-butenoic acid, trans-2-butenoic acid, acrolein, 2-cyclohexen-1-one, and 3-methyl-2-cyclohexenone. […] [Feng, J. et al. Discovery and Characterization of BlsE, a Radical S-Adenosyl-L-methionine Decarboxylase Involved in the Blasticidin S Biosynthetic Pathway. PLoS ONE 8 (2013)].
To increase the dissolved substrate concentration, 2-hexenedioic acid was dissolved in a reaction mixture containing […] (final concentration) isopropanol, and kinetic constants of EREDBC and EREDCA were determined.

[2] = Oxygen tolerance (residual activity) of purified EREDs on storage; assay type: physicochemical; conditions: for retained initial activity, storage in the absence of oxygen / retained initial activity, storage in the presence of air: three days; for retained initial activity, storage in the absence of oxygen: 4° C.
Experimental: Purified EREDs were placed in 5 mL glass tubes tightly capped with air-tight rubber stoppers. Anaerobic tubes were filled with anaerobic gas mixture (80% N2, 10% H2, and 10% CO2) and aerobic tubes were filled with atmospheric air. The tubes were kept on ice for a week and a small aliquots of EREDs (5 ul) were withdrawn by a syringe every day to measure residual activity in a reaction mixture containing 100 mM potassium phosphate buffer (pH 7.0), 0.5 mM NADH, indicated substrates (0.25 mM 2-hexenedioic acid for EREDBC and 0.75 mM cinnamic acid for EREDCA, and protein (1 μg) in a final volume of 200 μL.

[3] = In vitro reductase activity of purified EREDs, NADH oxidation at 340 nm; assay type: biochemical
Experimental: as §1, §2

[4] = Whole-cell biotransformation of muconic acid by E. coli expressing EREDs; assay type: cell-based; conditions: 0.7 mM, 24-hr incubation
Experimental: After a 24-hr incubation, no muconic acid or 2-hexenedioic acid were detected in the culture, and a 99% yield of adipic acid was obtained (FIGS. 8a, 8b, and 8c). […] The 3-hexenedioic acid-like compound appears to be an inefficient substrate for these EREDS. This is similar to the mutated 2,4-dienoyl-CoA reductases from E. coli, which catalyze hydrogenation of 2,4-dienoyl CoA into 3-enoyl CoA (Tu, X., Hubbard, P. A., Kim, J. J. P. & Schulz, H. Two distinct proton donors at the active site of Escherichia coli 2,4-dienoyl-CoA reductase are responsible for the formation of different products. Biochemistry 47, 1167-1175 (2008).).

[5] = purified enzyme, anaerobic, NADH

| Molecule | activity against 2-hexenedioic acid [1] | residual activity, storage in the presence of air ([2]; one day, air (21% oxygen)) [%] | retained initial activity, storage in the absence of oxygen [2] [%] | retained initial activity, storage in the presence of air ([2]; air (21% oxygen)) | activity against trans-2-butenoic acid [3, 5] [U/mg protein] | activity against trans-cinnamic acid [3, 5] [U/mg protein] | yield of adipic acid from cis,cis-muconic acid [4] [%] | yield of adipic acid from trans,trans-muconic acid [4] [%] | Activity [U/mg protein] 2-Hexenedioic acid [29 mM] ([1]; 29 mM, dissolved in aqueous buffer) [U/mg protein] | Activity [U/mg protein] 2-Hexenedioic acid [35 mM] ([1]; 35 mM, dissolved in 0.25 mM isopropanol) [U/mg protein] | Activity [U/mg protein] trans-Cinnamic acid [1.0 mM] ([3]; 1.0 mM, titrated with 1N NaOH) [U/mg protein] | Activity [U/mg protein] Acrolein [15 mM] ([3]; 15 mM) [U/mg protein] | Activity [U/mg protein] trans-2-Butenoic acid [50 mM] ([3]; 50 mM) [U/mg protein] | Activity [U/mg protein] 2-Cyclohexen-1-one [200 mM] ([3]; 200 mM) [U/mg protein] | Activity [U/mg protein] 3-Methyl-2-cyclohexenone [200 mM] ([3]; 200 mM) [U/mg protein] | activity against 2-cyclohexen-1-one [3, 5] [U/mg protein] | activity against 3-methyl-2-cyclohexenone [3, 5] [U/mg protein] | activity against acrolein [3, 5] [U/mg protein] |
| --- | --- | --- | --- | --- | --- | --- | --- | --- | --- | --- | --- | --- | --- | --- | --- | --- | --- | --- |
| B1 | up to 0.05 U/mg protein | 30 | 19 | completely inactivated | 0.008 | 3.5 | 99 | 99 | – | – | – | – | – | – | – | – | – | – |
| B2 | 0.09 U/mg protein | – | 35 | 33% | 0.036 | 0.39 | 99 | 99 | 0.09 ± 0.02 | 2.3 ± 0.04 | 0.39 ± 0.001 | 0.036 ± 0.005 | 0.037 ± 0.010 | 0.08 ± 0.03 | 0.13 ± 0.03 | 0.08 | 0.13 | 0.037 |
